Source: patent US20230242662A1 (BIOATLA, published 2023)

T1: recombinant cyno CD46 antigen (cynomolgus, UniProt A0A2K5WCL8 35-328)
T1 construct: extracellular domain; Plate-coated antigen of the ELISA; also called cynomolgus CD46 extracellular domain
T1 sequence: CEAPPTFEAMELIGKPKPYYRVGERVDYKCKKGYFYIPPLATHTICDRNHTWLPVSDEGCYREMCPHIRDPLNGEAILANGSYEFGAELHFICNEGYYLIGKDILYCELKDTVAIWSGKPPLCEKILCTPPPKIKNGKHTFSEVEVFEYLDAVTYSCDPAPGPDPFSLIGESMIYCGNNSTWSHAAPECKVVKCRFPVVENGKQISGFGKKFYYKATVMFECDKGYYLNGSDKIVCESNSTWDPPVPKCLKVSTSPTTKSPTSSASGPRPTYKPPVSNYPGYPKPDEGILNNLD

T2: cynoCD46-His (cynomolgus, UniProt A0A2K5WCL8 35-328)
T2 construct: extracellular domain; Immobilised by amine coupling on the SPR chip; not shown: His tag
T2 sequence: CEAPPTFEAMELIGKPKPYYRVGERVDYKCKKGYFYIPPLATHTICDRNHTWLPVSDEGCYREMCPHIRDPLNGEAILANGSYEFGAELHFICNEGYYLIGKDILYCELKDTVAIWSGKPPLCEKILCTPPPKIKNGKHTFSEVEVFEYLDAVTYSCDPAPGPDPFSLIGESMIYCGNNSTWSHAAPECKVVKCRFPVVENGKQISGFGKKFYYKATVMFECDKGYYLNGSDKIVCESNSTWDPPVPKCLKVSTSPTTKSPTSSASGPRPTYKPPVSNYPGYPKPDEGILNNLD

T3: huCD46-His (human, UniProt P15529 35-343)
T3 construct: extracellular domain; Immobilised by amine coupling on the SPR chip; It may be the same protein as the ELISA antigen; also called Human CD46-His; human CD46; not shown: His tag
T3 sequence (looked up): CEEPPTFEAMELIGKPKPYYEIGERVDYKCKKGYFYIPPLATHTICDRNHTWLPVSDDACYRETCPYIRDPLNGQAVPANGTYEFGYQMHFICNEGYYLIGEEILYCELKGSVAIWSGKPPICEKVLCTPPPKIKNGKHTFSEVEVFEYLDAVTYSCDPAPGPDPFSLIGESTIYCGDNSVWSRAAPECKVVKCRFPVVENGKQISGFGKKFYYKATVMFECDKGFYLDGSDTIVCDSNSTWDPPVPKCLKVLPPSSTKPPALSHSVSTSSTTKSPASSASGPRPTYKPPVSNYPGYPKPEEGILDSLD

B1: BA-133-04-04 (antibody, V domains shown)
VH: EVQLVESGGGLVQPGGSLRLSCAASGGSVSSYDISWIRQSPSRGLEWLGVIWTDGGTNYNSAFMSRFTISRDDSKNTAYLQMNSLKTEDTAVYYCERVYDGYPWFAYWGQGTLVTVSS
VL: AIQLTQSPSSLSASVGDRVTITCRASQGISNYLNWYLQKPGQSPQLLIYYTSSLHEGVPDRFSGSGSGTDFTLKISRVEAEDVGVYYCQQYIKLPWTFGQGTKVEIK
notes: the killing assays used the ADC form; also called CPE hit BA133-04-04
B2: BAP133-2-02-12 (antibody, V domains shown)
VH: EVQLVESGGGLVQPGGSLRLSCAASGGSVSSYDISWIRQSPSRGLEWLGVIWTDGGTNYNSAFMSRFTISRDDSKNTAYLQMNSLKTEDTAVYYCERVYDGYPWFAYWGQGTLVTVSS
VL: AIQLTQSPSSLSASVGDRVTITCRALQGISNYLNWYQQKPGKAPKLLIYYTSSLHSGVPSRFSGSGSGTEFTLTISSLQPDDFATYYCQQYIKLPWTFGQGTKVEIK
notes: also called BAP133-02-02-12; CPE hit BAP133-2-02-12

Experiments:
[1] = target: T4, cyno CD46 expressed on 293 cells (cynomolgus); test: FACS, 293 cells expressing cyno CD46, pH 7.4
T4 construct: whole, on cells; The construct on the cells is not described; also called HEK 293 cells expressing cyno CD46
Method: (§1) A similar FACS analysis was also carried out using 293 cells expressing cyno CD46. […] The EC50 values for binding to the 293 cells expressing cyno CD46 by the conditionally active anti-CD46 antibodies are summarized in Table 6.

[2] = target: T1, recombinant cyno CD46 antigen; test: ELISA, coated cyno CD46; EC50 at pH 7.4 over EC50 at pH 6.0
Method: The binding activities of conditionally active anti-CD46 antibodies to cyno CD46 were measured by ELISA and are shown in FIGS. 3-4. The EC50 values for binding to the cyno CD46 at pH 6.0 and pH 7.4 for the conditionally active anti-CD46 antibodies are summarized in Table 2.
[…] Cover with sealing film and place the plate onto a plate shaker set to 50 rpm for 60 minutes at room temperature. [0351] 6) Decant plates and tap out residual liquid on a stack of paper towels. [0352] 7) Serially dilute test articles in 3-fold dilutions starting at 3000 ng/mL in pH 6.0 or pH 7.4 ELISA incubation buffer. [0353] 8) Add 100 μL/well of diluted test articles to the plates [0354] 9) Cover with sealing film and place the plates onto a plate shaker set to 50 rpm for 60 minutes at room temperature. […] 10) Decant plates and tap out residual liquid on a stack of paper towels. [0356] 11) Wash wells three times by dispensing 200 μL of pH 6.0 or pH 7.4 ELISA wash buffer to the wells and completely aspirate the contents. [0357] 12) Dilute the HRP secondary antibody at 1:2500 in pH 6.0 or pH 7.4 ELISA incubation buffer. [0358] 13) Add 100 μL HRP secondary antibody diluted in pH 6.0 or pH 7.4 ELISA incubation buffer to each well [0359] 14) Cover with sealing film and place the plates onto a plate shaker set to 50 rpm for 60 minutes at room temperature. [0360] 15) Decant plates and tap out residual liquid on a stack of paper towels. [0361] 16) Wash wells three times by dispensing 200 μL of pH 6.0 or pH 7.4 ELISA wash buffer to the wells and completely aspirate the contents. [0362] 17) Dispense 50 μL per well of the TMB substrate solution into all wells of the plates. Incubate at room temperature for about 2 minutes 15 seconds or 2 minutes. […] 18) Add 50 μL per well of 1N HCl into all wells of the plates. Read plates at 450 nm using PerkinElmer, EnSpire 2300 Multilabel Reader.

[3] = target: T4, cyno CD46 expressed on 293 cells; test: FACS, 293 cells expressing cyno CD46; EC50 at pH 7.4 over EC50 at pH 6.0
Method: as §1

cynoCD46-His [4] = target: T2, cynoCD46-His; test: SPR, cynoCD46-His immobilised, antibody as analyte, pH 6.5
Method: (§2) Binding kinetics of anti-CD46 antibodies were measured by surface plasmon resonance on a SPR2/4 instrument (Sierra Sensors, Hamburg, Germany) and flat amine sensor chips. The SPR sensor contained four flow cells (FC1-FC4), each of which can be addressed individually or in groups. huCD46-His was immobilized in FC2, and cynoCD46-His was immobilized in FC4. No protein was immobilized in FC1 and FC3 which were used as control surfaces for FC2 and FC4, respectively.
(§3) All injections were done at a flow rate of 25 μL/min and 25° C. The sensor surface was activated with 1-ethyl-3-(3-dimethylaminopropyl)-carbodiimide (EDC) and N-hydroxysuccinimide (NHS) (200 mM/50 mM) for 480 seconds. Human CD46-His (2 μg/mL in 10 mM NaAc, pH5.0) was injected for 480s and the surface was inactivated by injecting 1M ethanolamine-HCl for 480s. cynoCD46-His was immobilized using the same conditions as described for huCD46-His, except that it was diluted into 10 mM NaAc buffer pH4.5. The control surface was activated and deactivated using the same conditions, but without injecting protein. PBST buffer (PBS pH7.4 with 0.05% TWEEN20™) was used as running buffer for the surface preparation. The running solution was switched to PBST with 30 mM sodium bicarbonate with the pH adjusted as indicated in the figures before the analyte injections. The instrument was equilibrated with the running solution for one hour before the first analyte injection.
(§4) The off-rate was measured for 360 s. The chip surface was regenerated after each cycle of interaction by injecting 6 μL of 10 mM glycine (pH 2.0). Flow cells 1 and 3 without immobilized protein were used as control surfaces for reference subtraction.

huCD46-His [5] = target: T3, huCD46-His; test: SPR, huCD46-His immobilised, antibody as analyte, pH 6.5
Method: as §2, §3, §4

cynoCD46-His [6] = target: T2, cynoCD46-His; test: SPR, cynoCD46-His immobilised, antibody as analyte, pH 7.4
Method: as §2, §3, §4

cynoCD46-His [7] = target: T2, cynoCD46-His; test: SPR, cynoCD46-His immobilised, antibody as analyte, pH 6.0
Method: as §2, §3, §4

[8] = target: T4, cyno CD46 expressed on 293 cells; test: FACS, 293 cells expressing cyno CD46, pH 6.0
Method: as §1

huCD46-His [9] = target: T3, huCD46-His; test: SPR, huCD46-His immobilised, antibody as analyte, pH 7.4
Method: as §2, §3, §4

huCD46-His [10] = target: T3, huCD46-His; test: SPR, huCD46-His immobilised, antibody as analyte, pH 6.0
Method: as §2, §3, §4

| Binder | EC50 [1] | ratio (ph 7.4/pH 6.0) [2] | Ratio (pH 7.4/6.0) [3] | Kd (cynoCD46-His [4]) | koff (cynoCD46-His [4]) | kon (cynoCD46-His [4]) | Kd (huCD46-His [5]) | koff (huCD46-His [5]) | kon (huCD46-His [5]) | Kd (cynoCD46-His [6]) | koff (cynoCD46-His [6]) | kon (cynoCD46-His [6]) | Kd (cynoCD46-His [7]) | koff (cynoCD46-His [7]) | kon (cynoCD46-His [7]) | EC50 [8] | Kd (huCD46-His [9]) | koff (huCD46-His [9]) | kon (huCD46-His [9]) | Kd (huCD46-His [10]) | other results |
| --- | --- | --- | --- | --- | --- | --- | --- | --- | --- | --- | --- | --- | --- | --- | --- | --- | --- | --- | --- | --- | --- |
| B1 | 0.944 µg/mL | 13 | 10 | 1.09 nM | 0.00145 s⁻¹ | 1.33e+06 M⁻¹ s⁻¹ | 1.91 nM | 0.00176 s⁻¹ | 922000 M⁻¹ s⁻¹ | 2.28 nM | 0.00154 s⁻¹ | 673000 M⁻¹ s⁻¹ | 1.02 nM | 0.00146 s⁻¹ | 1.42e+06 M⁻¹ s⁻¹ | 0.0947 µg/mL | 4.93 nM | 0.00241 s⁻¹ | 490000 M⁻¹ s⁻¹ | 2.51 nM | koff (huCD46-His [10]): 0.00207 s⁻¹; kon (huCD46-His [10]): 824000 M⁻¹ s⁻¹ |
| B2 | 2.92 µg/mL | 13.3 | 14.8 | 1.47 nM | 0.0017 s⁻¹ | 1.16e+06 M⁻¹ s⁻¹ | 5.78 nM | 0.00282 s⁻¹ | 488000 M⁻¹ s⁻¹ | 3.88 nM | 0.00192 s⁻¹ | 495000 M⁻¹ s⁻¹ | 1.45 nM | 0.00184 s⁻¹ | 1.27e+06 M⁻¹ s⁻¹ | 0.198 µg/mL | 8.79 nM | 0.00225 s⁻¹ | 256000 M⁻¹ s⁻¹ | 7.51 nM | koff (huCD46-His [10]): 0.00404 s⁻¹; kon (huCD46-His [10]): 539000 M⁻¹ s⁻¹ |
